Data on 8 molecules can be found in patent publication US10988786B2, “Mutant 4-hydroxyphenylacetate 3-hydroxylases and uses thereof” (SYMRISE AG, priority 2015, dated 2021).

Series [1] has as its system 4HPA3H enzymes. Conditions: previous study; cited from earlier work.
The subject of series [2] is 4HPA3H/PrnF/FDH system. Briefly: Dependence of in vitro conversion of p-coumaric acid on FAD concentration. Format: biochemical. As for the experimental part:
The reactions were to performed using the 4HPA3H/PrnF/FDH system.
(§1) In order to develop an effective and low-cost enzyme system for in vitro hydroxylation, several parameters of the 4HPA3H reaction with respect to maximum reaction rate were optimized. By means of a spectrophotometric assay (Example 4 above), the inventors screened different buffer systems and optimized the concentration of the components p-coumaric acid (1 cf. FIG. 1), FAD, NADH and methanol, the incubation temperature and oxygen transfer (i.e. by variation of the shaking frequency) (optimum conditions are given in the Experimental Section). […] In contrast to the cofactors, the accompanying cofactor recycling redox enzymes PrnF and FDH were used in excess due to their high specific activity.

The target of series [3] is T1, wild-type 4HPA3H (Escherichia coli, UniProt Q57160).
T1 construct: made in house; host or cells: E. coli BL21(DE3)
Put plainly: In vitro hydroxylation by the 4HPA3H/PrnF/FDH system, wild-type 4HPA3H. In kind it is biochemical, E. coli. The following applies: substrate 1 mM, purified wild-type 4HPA3H, optimized conditions. As for the experimental part: (§2) Purified 4HPA3H (A) or variants (B) (Y301I depicted in white and Y301F/S462A depicted in black) were used for conversion of substrates (1 mM) under optimized conditions. The numbers correspond to substrates as explained in the legend for FIG. 1 above.
as §1
In accordance with the whole-cell transformation experiments (FIG. 3), product yields in the conversion by the wild-type 4HPA3H (FIG. 8A) ranged from high (1, 13, 15 cf. FIG. 1) or moderate (5 cf. FIG. 1) to low (9, 11 cf. FIG. 1), whereas ferulic acid 3 was not oxidized. […] However, in contrast to the experiments with life biocatalysts […] conversion of naringenin (7 cf. FIG. 1) by the wild-type 4HPA3H (25% yield) was observed (which might be explained by increased substrate availability). The hydroxycarbazole (11) was not accepted by the double variant Y301F/S462A, probably because of the high substrate concentration which seems to reflect strong […] inhibition—an effect which has previously been observed for other 4HPA3H enzymes. Noteworthy, HPLC analysis of the reaction products confirmed product specificity.

Series [4] deals with T2, 4HPA3H double variant Y301F/S462A (Escherichia coli, UniProt Q57160, S462A/Y301F).
T2 construct: made in house; host or cells: E. coli BL21(DE3)
Put plainly: In vitro hydroxylation by the 4HPA3H/PrnF/FDH system, variant Y301F/S462A. The following applies: substrate 1 mM, purified Y301F/S462A. Format: biochemical, E. coli. The protocol:
as §2, §1
(§3) In accordance with the whole-cell transformation experiments (FIG. 3), product yields in the conversion by the wild-type 4HPA3H (FIG. 8A) ranged from high (1, 13, 15 cf. FIG. 1) or moderate (5 cf. FIG. 1) to low (9, 11 cf. FIG. 1), whereas ferulic acid 3 was not oxidized. […]

A short description of series [5]: Reduction of FAD with NADH by purified PrnF. Format: biochemical. The following applies: purified protein. An excerpt: In order to characterize 4HPA3H and its variants with respect to specific activity, the development of a convenient in vitro assay was necessary. As the enzymes rely on a reductase component which provides the cofactor FADH2 (see FIG. 2), the inventors focused on screening of a suitable reductase enzyme in the first step. The flavin reductase HpaC from E. coli—the endogenous partner of 4HPA3H—was not accessible due to formation of mainly insoluble protein under a variety of expression conditions (data not shown).

The nature of series [6]: Whole-cell hydroxylation, variants on substrates 5, 9 and 11. In kind it is cell-based. The following applies: whole cells.
Series [7] in a line: Whole-cell hydroxylation, variants compared with wild-type on well-accepted substrates. The following applies: whole cells.
Experimental: Substrates (200 μM) as shown in FIG. 1 were added to suspensions of bacterial cells expressing 4HPA3H or its single (A) and double variants (B). After incubation for 16 hours, catechols and residual substrates were extracted and analyzed by HPLC
Suspensions of the cells were tested for hydroxylation of a panel of eight phenolic compounds (FIG. 1) which belong to different classes of natural products: we included (I) phenolic acids and ketones such as p-coumaric acid (1), ferulic acid (3), rheosmin (15) and p-hydroxybenzoic acid (9), (II) polycyclic compounds such as the hydroxycoumarin umbelliferone (13), the stilbene resveratrol (5) and the flavonoid naringenin (7). […] 4HPA3H was also tested for conversion of 4-methoxycinnamic acid and 4-aminocinnamic acid.
Series [8] can be described thus: In vitro catechol complex formation assay (4HPA3H/PrnF/FDH), p-coumaric acid. In kind it is biochemical. Conditions: purified enzyme, optimized conditions, PrnF and FDH. The protocol:
(A) Standard curve for the determination of caffeic acid (2 cf. FIG. 1). Mixtures of caffeic acid and p-coumaric acid (1) were incubated with FeCl3 and analyzed at 595 nm as described in the Experimental Section. (B) Time course of the oxidation of p-coumaric acid (1 cf. FIG. 1) by wild-type 4HPA3H. The enzymatic reaction was performed under optimized conditions, and produced caffeic acid (2 cf. FIG. 1) was detected as Fe^3+ complex. Data are the means±standard deviations obtained from three measurements.
(§4) For assaying 4HPA3H in microplate scale, 4HPA3H was incubated with PrnF, the substrate p-coumaric acid (1 cf. FIG. 1) and the formate dehydrogenase (FDH) from Candida boidinii. Similar as reported in our previous publication, this enzyme was introduced for regeneration of the costly cofactor NADH: NAD^+ formed during the reaction is recycled with sodium formate, yielding a sequential three-enzyme cascade for hydride transfer (FIG. 2). The conversion of p-coumaric acid (1 cf. FIG. 1) was measured spectrophotometrically by a previously established catechol complexation method (M. Dippe, B. Weigel, R. Heinke, T. Vogt, L. A. Wessjohann, 2014), which could be applied for quantitative determination of the product caffeic acid (see FIG. 6). […] However, similar to the data obtained from whole-cell biotransformations (see Example 2), these variants were beneficial in the conversion of ferulic acid (3 cf. FIG. 1), which is also reflected by comparably high conversion rates (4HPA3H-Y301F/S462A: 1.06±0.31 nmol min^−1 mg^−1, 4HPA3H-Y301I: 4.49±0.20 nmol min^−1 mg^−1).
(§5) In order to develop an effective and low-cost enzyme system for in vitro hydroxylation, several parameters of the 4HPA3H reaction with respect to maximum reaction rate were optimized. […]

Series [9] can be described thus: In vitro hydroxylation, mutant enzymes on challenging substrates 3 and 7. Format: biochemical. Conditions: substrate 1 mM, purified enzymes. The protocol: as §2, §1, §3
Series [10] in a line: In vitro assay (4HPA3H/PrnF/FDH), conversion of ferulic acid. In kind it is biochemical. The following applies: purified enzyme, PrnF and FDH. As for the experimental part: as §4, §5

`O=C(O)C=Cc1ccccc1` [cinnamic acid]: the “hydroxylation of substrate” value in series [1] was “unable to hydroxylate”.
For the molecule `Cc1cc2nc3c(=O)[nH]c(=O)nc-3n(C[C@H](O)[C@H](O)[C@H](O)COP(=O)(O)OP(=O)(O)OC[C@H]3O[C@@H](n4cnc5c(N)ncnc54)[C@H](O)[C@@H]3O)c2cc1C` [FAD, flavin adenine dinucleotide], the “effect of high concentrations on the redox system” value in [2] is listed as “inhibitory”.
Turning to `Oc1ccc2c(c1)[nH]c1ccccc12` [Compound 11, 2-hydroxycarbazole], the “product yield” value in [3] is “low”. In series [4], the “acceptance as substrate” value is listed as “not accepted”.

B1: PrnF: flavin reductase from Pseudomonas protegens Pf-5, cofactor recycling enzyme, SEQ ID NO:176 (protein, listed as Pseudomonas protegens)
chain: MNAATETKVHDLLDAEGRDVRDARELRNVLGQFATGVTVITTRTADGRNVGVTANSFSSLSLSPALVLWSLARTAPSLKAFCSASHFAINVLGAHQHHLSEQFARAAADKFAGVAHSYGKAGAPVLDDVVAVLVCRNVTQYEGGDHLIFIGEIEQYRYSGAEPLVFHAGQYRGLGSNRAESVLKHE
modifications: flavin reductase PrnF
For B1, in series [5], the “activity in reduction of FAD with NADH” value is 16,660±1,600 nmol min^−1 mg^−1.

B2: 4HPA3H-Y301F: 4HPA3H single variant Y301F (protein, listed as Escherichia coli)
chain: MKPEDFRASTQRPFTGEEYLKSLQDGREIYIYGERVKDVTTHPAFRNAAASVAQLYDALHKPEMQDSLCWNTDTGSGGYTHKFFRVAKSADDLRQQRDAIAEWSRLSYGWMGRTPDYKAAFGCALGANPGFYGQFEQNARNWYTRIQETGLYFNHAIVNPPIDRHLPTDKVKDVYIKLEKETDAGIIVSGAKVVATNSALTHYNMIGFGSAQVMGENPDFALMFVAPMDADGVKLISRASYEMVAGATGSPYDYPLSSRFDENDAILVMDNVLIPWENVLIYRDFDRCRRWTMEGGFARMFPLQACVRLAVKLDFITALLKKSLECTGTLEFRGVQADLGEVVAWRNTFWALSDSMCSEATPWVNGAYLPDHAALQTYRVLAPMAYAKIKNIIERNVTSGLIYLPSSARDLNNPQIDQYLAKYVRGSNGMDHVQRIKILKLMWDAIGSEFGGRHELYEINYSGSQDEIRLQCLRQAQNSGNMDKMMAMVDRCLSEYDQDGWTVPHLHNNDDINMLDKLLK
modifications: 4HPA3H HpaB Y301F
notes: 4HPA3H single variant Y301F
In the case of B2, the “conversion of the substrates 5, 9 and 11” value in [6] is given as “superior”. For the same molecule, in [7], the “activity towards substrates 1, 13, 15 compared with wild-type enzyme” value was “comparably active”.

B3: 4HPA3H: wild-type 4-hydroxyphenylacetate 3-hydroxylase from E. coli, SEQ ID NO:98 (protein, listed as Escherichia coli)
chain: MKPEDFRASTQRPFTGEEYLKSLQDGREIYIYGERVKDVTTHPAFRNAAASVAQLYDALHKPEMQDSLCWNTDTGSGGYTHKFFRVAKSADDLRQQRDAIAEWSRLSYGWMGRTPDYKAAFGCALGANPGFYGQFEQNARNWYTRIQETGLYFNHAIVNPPIDRHLPTDKVKDVYIKLEKETDAGIIVSGAKVVATNSALTHYNMIGFGSAQVMGENPDFALMFVAPMDADGVKLISRASYEMVAGATGSPYDYPLSSRFDENDAILVMDNVLIPWENVLIYRDFDRCRRWTMEGGFARMYPLQACVRLAVKLDFITALLKKSLECTGTLEFRGVQADLGEVVAWRNTFWALSDSMCSEATPWVNGAYLPDHAALQTYRVLAPMAYAKIKNIIERNVTSGLIYLPSSARDLNNPQIDQYLAKYVRGSNGMDHVQRIKILKLMWDAIGSEFGGRHELYEINYSGSQDEIRLQCLRQAQNSGNMDKMMAMVDRCLSEYDQDGWTVPHLHNNDDINMLDKLLK
modifications: 4HPA3H HpaB wt
Regarding B3, the “specific activity towards p-coumaric acid (1)” value in series [8] stood at 6.2 ± 0.5 nmol/min/mg.

B4: 4HPA3H-Y301I: 4HPA3H single variant with isoleucine at position 301 (protein, listed as Escherichia coli)
chain: MKPEDFRASTQRPFTGEEYLKSLQDGREIYIYGERVKDVTTHPAFRNAAASVAQLYDALHKPEMQDSLCWNTDTGSGGYTHKFFRVAKSADDLRQQRDAIAEWSRLSYGWMGRTPDYKAAFGCALGANPGFYGQFEQNARNWYTRIQETGLYFNHAIVNPPIDRHLPTDKVKDVYIKLEKETDAGIIVSGAKVVATNSALTHYNMIGFGSAQVMGENPDFALMFVAPMDADGVKLISRASYEMVAGATGSPYDYPLSSRFDENDAILVMDNVLIPWENVLIYRDFDRCRRWTMEGGFARMIPLQACVRLAVKLDFITALLKKSLECTGTLEFRGVQADLGEVVAWRNTFWALSDSMCSEATPWVNGAYLPDHAALQTYRVLAPMAYAKIKNIIERNVTSGLIYLPSSARDLNNPQIDQYLAKYVRGSNGMDHVQRIKILKLMWDAIGSEFGGRHELYEINYSGSQDEIRLQCLRQAQNSGNMDKMMAMVDRCLSEYDQDGWTVPHLHNNDDINMLDKLLK
modifications: 4HPA3H HpaB Y301I
notes: 4HPA3H single variant with isoleucine at position 301
For the molecule B4, in series [9], the “transformation of the challenging substrates 3 and 7” value is listed as “optimal”. Also, the “conversion rate of ferulic acid (3)” value in series [10] stood at 4.49 ± 0.20 nmol/min/mg. Also, the “specific activity towards p-coumaric acid (1)” value in [8] was 1.3 ± 0.6 nmol/min/mg.

B5: 4HPA3H-Y301F/S462A: 4HPA3H double variant, SEQ ID NO:175 (protein, listed as Escherichia coli)
chain: MKPEDFRASTQRPFTGEEYLKSLQDGREIYIYGERVKDVTTHPAFRNAAASVAQLYDALHKPEMQDSLCWNTDTGSGGYTHKFFRVAKSADDLRQQRDAIAEWSRLSYGWMGRTPDYKAAFGCALGANPGFYGQFEQNARNWYTRIQETGLYFNHAIVNPPIDRHLPTDKVKDVYIKLEKETDAGIIVSGAKVVATNSALTHYNMIGFGSAQVMGENPDFALMFVAPMDADGVKLISRASYEMVAGATGSPYDYPLSSRFDENDAILVMDNVLIPWENVLIYRDFDRCRRWTMEGGFARMFPLQACVRLAVKLDFITALLKKSLECTGTLEFRGVQADLGEVVAWRNTFWALSDSMCSEATPWVNGAYLPDHAALQTYRVLAPMAYAKIKNIIERNVTSGLIYLPSSARDLNNPQIDQYLAKYVRGSNGMDHVQRIKILKLMWDAIGSEFGGRHELYEINYAGSQDEIRLQCLRQAQNSGNMDKMMAMVDRCLSEYDQDGWTVPHLHNNDDINMLDKLLK
modifications: 4HPA3H HpaB Y301F/S462A
In the case of B5, the “transformation of the challenging substrates 3 and 7” value in series [9] is “optimal”. Besides, in [10], the “conversion rate of ferulic acid (3)” value came out at 1.06 ± 0.31 nmol/min/mg. For the same molecule, in series [8], the “specific activity towards p-coumaric acid (1)” value was found to be 1.6 ± 0.3 nmol/min/mg.
